Holding throughout (assay): flow cytometry, alanine-scan library in HEK-293T
(In general: Flow cytometry measures light scatter and fluorescence of single cells or particles in a stream.)

One test has as its target T1, hsGLUT4 E162A (human, UniProt P14672 1-509).
T1 sequence: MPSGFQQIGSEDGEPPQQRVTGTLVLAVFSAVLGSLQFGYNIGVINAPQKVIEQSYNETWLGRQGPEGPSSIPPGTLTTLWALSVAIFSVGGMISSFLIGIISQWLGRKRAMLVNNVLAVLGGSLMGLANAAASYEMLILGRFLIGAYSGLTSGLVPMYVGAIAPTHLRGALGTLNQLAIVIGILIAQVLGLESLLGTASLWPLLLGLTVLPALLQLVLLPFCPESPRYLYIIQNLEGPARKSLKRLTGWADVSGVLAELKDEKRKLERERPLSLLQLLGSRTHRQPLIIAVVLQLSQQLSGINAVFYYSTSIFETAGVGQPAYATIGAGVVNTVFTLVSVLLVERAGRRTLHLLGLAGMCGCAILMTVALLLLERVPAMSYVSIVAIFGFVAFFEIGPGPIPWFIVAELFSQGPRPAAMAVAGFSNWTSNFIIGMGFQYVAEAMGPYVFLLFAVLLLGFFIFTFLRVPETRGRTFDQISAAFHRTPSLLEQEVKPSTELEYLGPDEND
As for the experimental part:
(§1) Because of the state-dependence of the isolated MAbs, we next wished to understand the mechanism by which each MAb could recognize GLUT4 in its different conformations. The residues required for binding of each MAb were determined using shotgun mutagenesis comprehensive alanine scanning (Davidson E & Doranz B J (2014) A High-Throughput Shotgun Mutagenesis Approach to Mapping B-cell Antibody Epitopes. Immunology, which is hereby incorporated by reference in its entirety). All residues of hsGLUT4 were individually mutated to alanine, with existing alanines changed to serines. Mutations were obtained for 508 of the 509 residues of GLUT4 (excluding the initiating methionine). The entire mutation library was transfected into human HEK-293T cells in a 384-well array format (one clone per well) and assessed for immunoreactivity using high-throughput flow cytometry.
(§2) HEK-293T cells were transfected by CaPO₄ with plasmids in 6-well culture plates (Falcon) at 750,000 cells/well. At 48 hours post transfection, cells were stained with anti-V5 and anti-GLUT4 MAbs (purified scFv, 2 μg/ml) followed by biotinylated goat anti-mouse or human antibody (1:500) and streptavidin-PerCP (1:500). Fluorescence was detected using an Intellicyt high-throughput flow cytometer (HTFC; Intellicyt, Albuquerque, N. Mex.). For cell permeabilization, cells were treated with saponin at 0.1% in PBS for 20 minutes. To discriminate intact (live) and permeabilized (dead) cells without the use of detergent, propidium iodide (PI) was added to HEK-293T cells at 1 ug/ml just prior to flow cytometry. Where indicated, cytochalasin B (Sigma) was used at a final concentration of 10 uM and phloretin (Sigma) was used at a final concentration of 100 uM, each added in 10% NGS for 30 minutes prior to antibody staining as well as included with the primary antibody.

The next test addresses T2, hsGLUT4 L61A (human, UniProt P14672 1-509).
T2 sequence: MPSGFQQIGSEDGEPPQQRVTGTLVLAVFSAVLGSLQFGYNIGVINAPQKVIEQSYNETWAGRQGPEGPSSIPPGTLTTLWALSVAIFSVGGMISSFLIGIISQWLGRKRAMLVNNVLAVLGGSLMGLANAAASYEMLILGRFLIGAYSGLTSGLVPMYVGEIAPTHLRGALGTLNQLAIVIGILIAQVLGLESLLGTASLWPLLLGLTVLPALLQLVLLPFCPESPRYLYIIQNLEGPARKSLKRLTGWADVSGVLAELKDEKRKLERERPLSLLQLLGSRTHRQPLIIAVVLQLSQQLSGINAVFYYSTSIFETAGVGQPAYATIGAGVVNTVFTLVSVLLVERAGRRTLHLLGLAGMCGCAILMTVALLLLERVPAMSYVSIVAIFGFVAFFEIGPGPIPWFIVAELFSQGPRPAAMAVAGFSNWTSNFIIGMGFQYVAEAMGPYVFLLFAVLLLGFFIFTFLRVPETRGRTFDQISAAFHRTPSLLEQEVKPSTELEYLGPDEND
As for the experimental part: as §1, §2

Another test concerns the target T3, hsGLUT4 L247A (human, UniProt P14672 1-509).
T3 sequence: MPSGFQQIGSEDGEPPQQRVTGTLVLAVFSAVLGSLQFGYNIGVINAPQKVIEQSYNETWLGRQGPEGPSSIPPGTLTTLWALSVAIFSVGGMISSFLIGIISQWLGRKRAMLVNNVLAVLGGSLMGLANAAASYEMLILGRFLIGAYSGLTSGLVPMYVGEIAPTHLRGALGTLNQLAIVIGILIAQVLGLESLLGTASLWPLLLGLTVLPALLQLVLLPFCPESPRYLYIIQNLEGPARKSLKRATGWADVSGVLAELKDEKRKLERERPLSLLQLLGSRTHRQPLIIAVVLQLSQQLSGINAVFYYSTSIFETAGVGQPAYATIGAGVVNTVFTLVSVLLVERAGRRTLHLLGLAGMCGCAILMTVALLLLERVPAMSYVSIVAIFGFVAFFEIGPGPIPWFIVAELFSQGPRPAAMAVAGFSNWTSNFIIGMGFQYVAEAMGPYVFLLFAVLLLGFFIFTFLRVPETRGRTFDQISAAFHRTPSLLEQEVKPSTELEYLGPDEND
As to the method: as §1, §2

A further test concerns the target T4, hsGLUT4 P224A (human, UniProt P14672 1-509).
T4 sequence: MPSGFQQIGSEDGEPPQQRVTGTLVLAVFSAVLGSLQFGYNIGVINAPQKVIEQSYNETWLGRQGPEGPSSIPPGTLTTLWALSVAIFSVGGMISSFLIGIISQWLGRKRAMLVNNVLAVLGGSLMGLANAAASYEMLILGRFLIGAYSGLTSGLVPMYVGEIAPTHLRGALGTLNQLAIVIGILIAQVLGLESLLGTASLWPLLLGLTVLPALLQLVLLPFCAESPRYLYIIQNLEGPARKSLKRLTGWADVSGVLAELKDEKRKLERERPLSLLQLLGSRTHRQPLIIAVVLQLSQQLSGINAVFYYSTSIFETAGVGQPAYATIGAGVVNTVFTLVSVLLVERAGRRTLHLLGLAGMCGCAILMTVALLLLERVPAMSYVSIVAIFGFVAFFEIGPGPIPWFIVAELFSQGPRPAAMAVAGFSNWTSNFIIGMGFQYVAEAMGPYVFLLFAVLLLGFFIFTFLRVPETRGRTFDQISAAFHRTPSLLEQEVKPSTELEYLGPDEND
As for the experimental part:
as §1, §2

These results are taken from patent US20210238276A1 (INTEGRAL MOLECULAR, published 2021).

On to 1F8 (antibody), for which the % of binding to wild type GLUT4 with hsGLUT4 E162A came out at 87%; with hsGLUT4 L61A, 90%; with hsGLUT4 L247A, 95%; in the test with hsGLUT4 P224A, 103%.

B1: AB101 (scFv)
scFv: ALTQPSSVSANPGETVKITCSGSSNSYGWYQQKSPGSAPVTVIYYNDKRPSDIPSRFSGSKSDSTHTLTITGVRAEDEAVYFCGSYDSTYVGIFGAGTTLTVLGQSSRSSGGGGSSGGGGSAVTLDESGGGLQTPGGTLSLVCKASGFTFSSNAMGWVRQAPGKGLEWVAGISSDGRYTKYGSAVKGRATISRDNGQSTVRLQLNNLRAEDTGTYFCAKAFGNNYRRIYAGQIDAWGHGTEVIVSS
notes: Chicken-derived clone used as a control; the four lead clones were tested as scFv-human IgG1 Fc; also called MAb AB101
Regarding B1, the “% of binding to wild type GLUT4” value in the test with hsGLUT4 E162A is 83%; in the test with hsGLUT4 L61A it was 115%; with hsGLUT4 L247A, 111%; in the test with hsGLUT4 P224A it was 90%.

B2: AB111 (Fc fusion)
scFv: ALTQPSSVSANPGETVKITCSGSGSWYGWFQQKSPGSAPVTVIYSNDKRPSDIPSRFSGSKSGSTSTLTITGVQVEDEAVYYCGNWDIFGAGTTLTVLGQSSRSSGGGGSSGGGGSAVTLDESGGGLQTPGGALSLVCKASGFTFSSHGMGWVRQAPGKGLEWVASISTGRYTFYAPAVKGRATISRDNGQSTVRLQLNNLRAEDTATYYCTKCAGLNGCGGGEIDAWGHGTEVIVSS
notes: Bivalent scFv-Fc; also called MAb AB111; not shown: Fc fragment of human IgG1, cloned in frame with the scFv
For B2, the “% of binding to wild type GLUT4” value was found to be 72% in the test with hsGLUT4 E162A, 80% with hsGLUT4 L61A, 99% with hsGLUT4 L247A and 108% with hsGLUT4 P224A.

B3: AB108 (Fc fusion)
scFv: ALTQPSSVSANLGGTVKITCSGSSGSYGWYQQKAPGSAPVTLIYRNDKRPSDIPSRFSGSESGSTGTLTITGVQAEDEAVYFCGGYDSSAGYAAFGAGTTLTVLGQSSRSSGGGGSSGGGGSAVTLDESGGGLQTPGGALSLVCKASGFTFSSHGMGWVRQAPGKGLEWVGSISTGRYTFYAPAVKGRATISRDNGQSTLRLQLNNLRAEDTGTYYCTKCAGLNGCGGGEIDAWGHGTEVIVSS
notes: Bivalent scFv-Fc; also called MAb AB108; not shown: Fc fragment of human IgG1, cloned in frame with the scFv
Regarding B3, the “% of binding to wild type GLUT4” value in the test with hsGLUT4 E162A was 41%; in the test with hsGLUT4 L61A, 13%; with hsGLUT4 L247A it was 110%; with hsGLUT4 P224A it was 56%.
